Laboratory results as given in publication PMC8794893 (Proceedings of the National Academy of Sciences of the …, 2022).

Assays:
[1] = molecular target: T1, Archaeoglobus fulgidus DsrAB dissimilatory sulfite reductase (Archaeoglobus fulgidus VC-16 …, UniProt Q59109 1-418; Q59110 1-366); assay: MST
[2] = molecular target: T1, Archaeoglobus fulgidus DsrAB …; assay: SPR

T1 sequence (Q59109 whole entry, chain 1 of 2): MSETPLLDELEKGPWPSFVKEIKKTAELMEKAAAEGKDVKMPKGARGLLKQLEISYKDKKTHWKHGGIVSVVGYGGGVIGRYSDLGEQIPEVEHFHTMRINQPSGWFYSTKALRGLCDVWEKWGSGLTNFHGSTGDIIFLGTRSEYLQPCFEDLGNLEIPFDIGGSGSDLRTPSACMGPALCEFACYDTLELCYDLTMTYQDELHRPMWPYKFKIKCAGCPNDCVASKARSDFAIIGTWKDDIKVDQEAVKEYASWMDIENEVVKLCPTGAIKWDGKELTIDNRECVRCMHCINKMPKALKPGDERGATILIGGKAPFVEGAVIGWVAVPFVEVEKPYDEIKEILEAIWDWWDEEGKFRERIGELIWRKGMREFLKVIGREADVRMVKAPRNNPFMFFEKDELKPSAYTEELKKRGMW
T1 sequence (Q59110 whole entry, chain 2 of 2): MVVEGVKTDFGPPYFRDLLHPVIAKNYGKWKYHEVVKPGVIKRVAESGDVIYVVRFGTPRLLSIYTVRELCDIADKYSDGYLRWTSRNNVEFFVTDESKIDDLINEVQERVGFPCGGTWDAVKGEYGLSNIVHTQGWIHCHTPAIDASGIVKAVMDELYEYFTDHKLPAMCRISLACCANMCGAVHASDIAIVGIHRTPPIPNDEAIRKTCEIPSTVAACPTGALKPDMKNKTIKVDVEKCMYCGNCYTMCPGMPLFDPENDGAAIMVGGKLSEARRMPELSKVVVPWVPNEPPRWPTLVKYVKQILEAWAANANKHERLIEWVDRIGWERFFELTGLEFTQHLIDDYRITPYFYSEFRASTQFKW

Kd [1]: 350 ± 60 nM | Kd [2]: 540 ± 20 nM
B1: recombinant Archaeoglobus fulgidus DsrD with C-terminal His-tag (natural protein, Archaeoglobus fulgidus VC-16, UniProt P70742 1-77, looked up)
chain: MADYTEEDKQKVLAQLSKKTWKIPELAKILKMDKKVVKKIVQDLINEGVAGYWSSGSTTYVATKEYIEELEKKRAEG
modifications: RED-NHS dye on amines (Monolith NT Protein Labeling Kit RED-NHS second generation), in the MST experiment only
